The values that follow come from article PMC7958859, “Molecular and Pharmacological Characterization of the Interaction between Human Geranylgeranyltransferase Type I and Ras-Related Protein Rap1B” (International Journal of Molecular Sciences, 2021).

The target in this test is human GGTase-I (LgBiT-GGTase-I-β-subunit with co-transfected untagged FTase α-subunit) (human, UniProt P53609-1 2-377; P49354-1 1-379). In words: split reporter (BiFC, NanoBiT); living HEK293 cells stably expressing the human A2BAR, transient co-transfection (50 ng DNA/well of each LgBiT and SmBiT plasmid, 100 ng/well untagged FTase α, ΔCQLL 50–200 ng/well); NanoGlo live-cell substrate 24 h after transfection, luminescence at 25 °C every 30 s, maxima plotted as RLU; also after treatment with vehicle (DMSO), adenosine, NECA, BAY60-6583, CGS-21680, forskolin, …. Conditions: partners not purified.

B1: SmBiT-Rap1B ΔCQLL (domain or fragment)
chain: REYKLVVLGSGGVGKSALTVQFVQGIFVEKYDPTIEDSYRKQVEVDAQQCMLEILDTAGTEQFTAMRDLYMKNGQGFALVYSITAQSTFNDLQDLREQILRVKDTDDVPMILVGNKCDLEDERVVGKEQGQNLARQWNNCAFLESSAKSKINVNEIFYDLVRQINRKTPVPGKARKKSS
notes: human Rap1B lacking the C-terminal CAAX motif CQLL (from C181 to the end); the forward primer begins at codon 2, the reverse primer ends with Lys-Lys-Ser-Ser and a stop codon; Expression about 5-fold lower than SmBiT-Rap1B WT by Western blot; Glycine/serine linker and Ala-Ile-Ala between SmBiT and Rap1B; also called complete CAAX motif deletion mutant; source: HEK293 stably expressing the human …
Take B1: the “fold lower luminescence than with Rap1B WT (50 ng DNA/well each)” value is about 20 fold and the “fold lower luminescence than with Rap1B WT (ΔCQLL 200 ng DNA/well, WT 50 ng DNA/well)” value is about 10 fold.
